This note sets out measurements from paper doi:10.1101/2022.10.13.511954 (bioRxiv, 2022).

The target of test [1] is T1, (MBP)2-WRC, human WAVE regulatory complex (human, UniProt Q7L576 1-1253; Q9Y2A7 1-1128; Q92558 1-178; Q9NYB9 1-158; Q8WUW1 1-75). Briefly: pull-down.
Test [2] has as its target T1, (MBP)2-WRC, human WAVE regulatory …. As to the kind of experiment: pull-down. This is another data set of the same source.

Changes are numbered by the printed parent chain. Names may count otherwise. Like-named read-outs stand apart in the source and are kept apart here.

B1: GST-tagged cytoplasmic domain of DCC (GST-DCC^cyto) (domain or fragment, human, UniProt P43146 1123-1447, looked up)
chain: RRSSAQQRKKRATHSAGKRKGSQKDLRPPDLWIHHEEMEMKNIEKPSGTDPAGRDSPIQSCQDLTPVSHSQSETQLGSKSTSHSGQDTEEAGSSMSTLERSLAARRAPRAKLMIPMDAQSNNPAVVSAIPVPTLESAQYPGILPSPTCGYPHPQFTLRPVPFPTLSVDRGFGAGRSQSVSEGPTTQQPPMLPPSQPEHSSSEEAPSRTIPTACVRPTHPLRSFANPLLPPPMSAIEPKVPYTPLLSQPGPTLPKTHVKTASLGLAGKARSPLLPVSVPTAPEVSEESHKPTEDSANVYEQDDLSEQMASLEGLMKQLNAITGSAF
Take B1: in test [1], the binding result was “binds”.

B2: GST-DCC^R1343H-cyto (domain or fragment, human, UniProt P43146 1123-1447, looked up)
chain: B1 chain with R221H
In the case of B2, in test [2], the binding result is “binds”.

B3: GST-DCC^ΔWIRS-cyto (domain or fragment, human, UniProt P43146 1123-1447, looked up)
chain: B1 chain with S222A, F223A
For B3, in test [2], the binding result is “binds”.
